Here are results for one substance from US20240173352A1.

Assay [1] has as its target HLA-A*02 blocker antigen on beads (human). The experiment in a line: cell-based or functional assay.
The target of assay [2] is HLA-A*02 (on target cells) (human). Put plainly: cell-based or functional assay.

Some results are limits rather than exact numbers.

For “HLA-A*02 PA2.1 ScFv LIR1 inhibitor (C1765) (from UniProt Q8NHL6 399-650) (receptor)”, in assay [1], the shift of the EGFR CAR EMAX, cell-free bead assay is over 9 fold and the shift of the MSLN CAR EMAX, cell-free bead assay was over 12 fold. For the same substance, in assay [2], the Emax shift of the CD19-CAR activator in Jurkat cells is over 10 fold; the inhibition of IFNγ induction in primary T cells (MSLN CAR), HeLa target cells expressing HLA-A*02 was over 5 fold; the inhibition of IFNγ induction in primary T cells (MSLN CAR), SiHa target cells expressing HLA-A*02 was over 10 fold; the shift of the CD19 CAR EMAX, NALM6 target cells was over 5 fold. Also, in assay [2], the shift of the EGFR CAR (CT479) EMAX, Jurkat NFAT-luciferase, HLA-A*02 transduced HeLa target cells was over 5 fold; the shift of the EGFR CAR EMAX, HeLa target cells is over 5 fold; the shift of the EGFR CAR EMAX, Jurkat NFAT-luciferase, HCT116 target cells came to 1.8 fold; the shift of the EGFR CAR EMAX, SiHa target cells was over 4 fold. In addition, in assay [2], the shift of the MSLN CAR EMAX, K562 target cells was over 5 fold and the suppression of pan HLA scFv CAR activators, HLA-A*02-positive T2 cells, E:T 1:2 is under 25 fold.
